The target of the experiment is human interleukin-4 receptor alpha chain (IL-4Rα) (human) (UniProt P24394). Nature of the experiment: cell-based or functional assay.

B1: Reference IL-4Rα antibody (Dupilumab) (antibody, INN chains, looked up, V domains shown)
VH: EVQLVESGGGLEQPGGSLRLSCAGSGFTFRDYAMTWVRQAPGKGLEWVSSISGSGGNTYYADSVKGRFTISRDNSKNTLYLQMNSLRAEDTAVYYCAKDRLSITIRPRYYGLDVWGQGTTVTVSS
VL: DIVMTQSPLSLPVTPGEPASISCRSSQSLLYSIGYNYLDWYLQKSGQSPQLLIYLGSNRASGVPDRFSGSGSGTDFTLKISRVEAEDVGFYYCMQALQTPYTFGQGTKLEIKR
Turning to B1, the Eotaxin-3 IC50 (nM): inhibition of IL-4 induced eotaxin-3 release, human whole blood in vitro, 8 ng/mL IL-4 for 24 hours, ELISA was determined as 1.5 nM; the MDC IC50 (nM): inhibition of IL-4 induced MDC release, human whole blood in vitro, 8 ng/mL IL-4 for 24 hours, ELISA was found to be 1.1 nM; the TARC IC50 (nM): inhibition of IL-4 induced TARC release, human whole blood in vitro, 8 ng/mL IL-4 for 24 hours, ELISA came to 0.8 nM; the pSTAT IC50 (nM): inhibition of IL-4 stimulated STAT6 phosphorylation in CD3+ T cells, human whole blood in vitro, 8 ng/mL IL-4 for 15 minutes, FACS was determined as 0.8 nM.

The values are drawn from US20220193191A1.
